Measured values: publication PMC2903434

Target: PAK1 kinase domain (K298R mutant), residues 250-545 from PAK-fl (UniProt Q13153)

- Kd: 4 µM
Substance: truncated autoinhibitory domain (trunc-AID, residues 83-137) from PAK1 (from UniProt Q13153 83-137) (domain or fragment)
